In patent US11202837B2, “Biological materials and uses thereof” (Antikor Biopharma Limited, priority 2014, dated 2021):

Key:
[1] = system: BT474 human breast carcinoma xenografts; assay: Tumour growth inhibition or eradication in BT474 xenograft model; type: in vivo
Method: (§1) Mice. […] The animals were fed ad libitum water (reverse osmosis, 1 ppm Cl), and NIH 31 Modified and Irradiated Lab Diet® consisting of 18.0% crude protein, 5.0% crude fat, and 5.0% crude fiber. The mice were housed on irradiated Enrich-o'cobs™ Laboratory Animal Bedding in static microisolators on a 12-hour light cycle at 20-22° C. (68-72° F.) and 40-60% humidity. Charles River Discovery Services North Carolina (CR Discovery Services, who carried out this contracted R&D) specifically complies with the recommendations of the Guide for Care and Use of Laboratory Animals with respect to restraint, husbandry, surgical procedures, feed and fluid regulation, and veterinary care.
Tumor weight may be estimated with the assumption that 1 mg is equivalent to 1 mm^3 of tumor volume.

[2] = Plasma pharmacokinetics in Sprague-Dawley rats (ELISA); type: in vivo, rat
Method: Rats. Male Sprague-Dawley rats (sourced from Charles River, UK) were group housed in a temperature and light controlled facility on a 12 hour light/dark cycle with food and water available ad libitum. Rats selected for study inclusion were individually housed until completion of the study. All animals were subjected to health monitoring in accordance with the guidelines by the onsite home office registered veterinarian. All animal experimentation was covered under the UK Animals (Scientific Procedures) Act (1986) and EU directive 86/609/EEC. All such work was monitored by regular inspections of procedures and facilities by the on-site Veterinarian and UK Home Office inspectors. The study design required the surgical implantation of catheters into the jugular of male Sprague-Dawley rats.
Rats were anaesthetised using the inhalation anaesthetic isoflurane and placed in dorsal recumbency. The right jugular vein was exposed and a loose ligature was placed caudally and the cranial end of vein was ligated. A small incision was made between the ligatures into which the catheter (polyethylene 50 tubing) was inserted. The catheter was secured in place by tying the loose ligature around the catheterised vessel. A small incision was made in the scapular region to serve as the exit site of the catheter. The catheter was subcutaneously tunneled and exteriorised through the scapular incision. Patency of the catheter was tested, and the catheter was filled with a locking solution (heparinised saline) and sealed with a stainless steel pin. Post-operative monitoring of animals was performed according to Home Office good practice guidelines. Intravenous dosing was via the tail vein.
Therapeutic (test) Agents. All test agents were supplied as ready-to-dose dosing solutions. All dosing solutions were stored at 4° C. until dosed. All treatments were administered in a dosing volume scaled to the body weights of the individual animals to obtain the dosing concentration described in the treatment tables.
Treatment (rats). On Day 1 of the study, rats were divided into groups of three animals (per test agent being evaluated), and dosing was initiated according to the treatment plan summarized in the tables below
Sampling (rats). Serial venous blood samples (approx. 0.1-0.2 ml) were collected via the exteriorised jugular vein catheter at specified time points (0.5 to 72 hrs post dosing) and placed in heparinised containers. Prior to taking the blood samples the catheter was evacuated of heparinised saline to prevent dilution of the blood sample. Following each blood sample the volume of blood removed is replaced with an equal volume of heparinised saline via the catheter and sealed. Blood samples were centrifuged (5 minutes, 16,100 g, 4° C.) to separate the plasma. Plasma samples were transferred to fresh containers and promptly frozen and stored at −20° C. until used for analysis.
Quantification of test agents in plasma. An ELISA was carried out as described in Example 31 The detecting antibodies were (a) Anti-T7 tag to detect the scFv (total antibody), (b) Anti-Human Fab-specific to detect trastuzumab (total antibody), (c) Anti-MMAF (Concortis), Anti-MMAE (Concortis), anti-DM1
(Concortis) and anti-cemadotin (in-house mouse monoclonal antibody, Example 33 that also recognised P5C5 and AuristatinF), total ADC. The reference test agents were used to construct a calibration curve for which the plasma samples were compared to, in order to quantify the amount present. The concentration was plotted against time (average of three animals with standard error) and fitted to a 2-phase decay curve using GraphPad Prism to derive kinetic parameters.

[3] = system: BT474 human breast carcinoma xenografts; assay: Tumour penetration in BT474 xenografts, immunohistochemistry 2 hrs post dose; type: in vivo, mouse; conditions: 5 mg/kg single i.v. dose, SCID mice, BT474, payload detection (total ADC)
Method: as §1, with “care. The animal care and use program at CR Discovery Services is accredited by the Association for Assessment and Accreditation of Laboratory Animal Care International (AAALAC), which assures compliance with accepted standards for the care and use of laboratory animals.” for “care.”
Therapeutic (test) Agents. […] All dosing solutions were stored at 4° C. until dosed. […] Treatment.

HER2 = HER2 (Homo sapiens, UniProt P04626); assay: Rat urine analysed on a HER2-Biacore SPR chip; type: in vivo; conditions: 10-fold concentrated urine, compared to free scFv samples
Method: (A) A single i.v. dose was injected into male Sprague-Dawley rats at 4 mg/kg. Plasma samples were taken at time points indicated and analysed by ELISA using anti-protein detection (total protein, indicated by solid lines, closed symbols) and where relevant anti-drug detection (total ADC, indicated by dashed lines, open symbols). The SE of the mean of each group and experimental triplicates are shown. ADC scFv (TCT1067)-P5C5 (circles) (n=3) and scFv (TCT1067) (squares) (n=3). (B) 10-fold concentrated urine collected over 24 hours analysed on a HER2-Biacore SPR chip for the scFv (TCT1067)-injected rats, 3 animal samples. The scFv reference is shown. The bulk shifts in the urine samples are due to the concentration of urine components. (C) 10-fold concentrated urine collected over 24 hours analysed on a HER2-Biacore SPR chip for the scFv (TCT1067)-P5C5 conjugate-injected rats, 3 animal samples. The scFv (TCT1067)-P5C5 reference is shown. The bulk shifts in the urine samples are due to the concentration of urine components.
The scFv (TCT1067)-P5C5 conjugate were detected in the plasma via its T7 tag (detecting total antibody) and via the payload (detecting total ADC). […] The urine from the treated animals was collected over 24 hours, concentrated 10-fold in a spin concentrator (MWCO-10 kDa) and dialysed against PBS. These samples, from three rats per group, were analysed on a Biacore SPR chip.

[4] = Concentration reached and storage stability of purified conjugates in buffer; type: physicochemical; conditions: after purification and concentration
[5] = Body weight and tolerability in BT474 xenograft studies; type: in vivo, mouse; conditions: BT474 xenograft study
From the text: Treatment-Related Side Effects. Test animals were weighed Day 1. Animals were observed frequently for overt signs of any adverse, treatment-related side effects. Individual body weight loss was monitored every other day and any animal whose weight exceeded the limits for acceptable body weight loss was euthanized. Group mean body weight loss also was monitored as per protocol. Acceptable toxicity for the maximum tolerated dose (MTD) was defined as a group mean body weight loss of less than 20% during the test.

[6] = single i.v. dose 4 mg/kg, male Sprague-Dawley rats

B1: scFv (TCT1067)-P5-C5 (conjugate)
scFv: SGSGGSGQVQLVQSGAEVKKPGESLKISCKGSGYSFTSYWIAWVRQMPGKGLEYMGLIYPGDSDTKYSPSFQGQVTISVDKSVSTAYLQWSSLKPSDSAVYFCARHDVGYCTDRTCAAWPEWLGVWGQGTLVTVSSGGGGSGGGGSGGGGSQSVLTQPPSVSAAPGQKVTISCSGSSSNIGNNYVSWYQQLPGTAPKLLIYGHTNRPAGVPDRFSGSKSGTSASLAISGFRSEDEADYYCASWDYTLSGWVFGGGTKLTVLMASMTGGQQMG
tumour growth delay ([1]; 5 mg/kg dosing regimen): ~20 days
tumour shrinkage compared with the trastuzumab ADC ([1]; scFv ADC dosed more frequently): more effectively
Bioavailability (blood exposure, AUC, 24 hrs) ([2]; rats, 1 × 4 mg/kg, mean AUC in anti-payload and anti-protein detection, Table 64): 90.1 μghr/ml
Elimination half-life (hrs) Total ADC ([2]; rats, 1 × 4 mg/kg, plasma ELISA anti-payload, Table 64): 2.2085 h
Elimination half-life (hrs) Total Antibody ([2]; rats, 1 × 4 mg/kg, plasma ELISA, Table 64): 0.512 h
increase in bioavailability (AUC) over unmodified scFv [2, 6]: 4.5 fold
plasma clearance (in words) [2, 6]: clears more slowly than the unmodified fragment
stability in plasma (total antibody vs total ADC clearance lines) ([2]; single i.v. dose 4 mg/kg, rats): stable in plasma
volume of distribution compared to unmodified scFv ([2]; single i.v. dose 4 mg/kg, rats): lower volume of distribution
localisation in tumour sections at 2 hrs post-dosing [3]: localise throughout the tumour
HER2 binding activity in urine collected over 24 hours (HER2): comparable binding activity
time stable in the buffer [4]: several months
body weight, heavier than the IgG ADC group of mice [5]: up to 20%
tolerability from body weights (in words) [5]: better tolerated
